Reference: paper PMC7565927

B1: WIF1 (Wnt Inhibitory Factor 1): T255A (protein)
parent chain: MARRRAFPAFALRLWSILPCLLLLRADAGQPPEESLYLWIDAHQARVLIGFEEDILIVSEGKMAPFTHDFRKAQQRMPAIPVNIHSMNFTWQAAGQAEYFYEFLSLRSLDKGIMADPTVNVPLLGTVPHKASVVQVGFPCLGKQDGVAAFEVNVIVMNSEGNTILRTPQNAIFFKTCQQAECPGGCRNGGFCNERRVCECPDGFYGPHCEKALCIPRCMNGGLCVTPGFCICPPGFYGVNCDKANCSTTCFNGGTCFYPGKCICPPGLEGEQCELSKCPQPCRNGGKCIGKSKCKCPKGYQGDLCSKPVCEPGCGAHGTCHEPNKCQCREGWHGRHCNKRYGASLMHAPRPAGAGLERHTPSLKKAEDRRDPPESNYIW
B2: WIF1 (Wnt Inhibitory Factor 1): T255/319A (protein)
parent chain: B1 parent chain

Experiments:
[1] = anti-V5 Western blot of CHO cell lysates, GAPDH-normalised; conditions: glycan lost; control: WT WIF1-V5-His
[2] = anti-V5 Western blot of CHO conditioned media; conditions: glycan lost; control: WT WIF1-V5-His

Row | Protein | localisation_or_trafficking [1] | expression_or_secretion, percent_of_wt [2]
1 | B1 | increases | decreases, decrease of more than 50% vs 100
2 | B2 | increases | decreases, decrease of more than 50% vs 100
